# According to PMC6013450, “A convenient protocol for generating giant unilamellar vesicles containing SNARE proteins using electroformation” (Scientific Reports, 2018):
# Target: T1, syntaxin-1A (183–288) (Rattus norvegicus, UniProt P32851 183-288)
# T1 construct: syntaxin-1A, Rattus norvegicus, residues 183-288, contains the transmembrane region; source: E. coli BL21 (DE3), purified (Ni-NTA, ion exchange MonoQ, buffer with 1% CHAPS)
# Test: ion exchange chromatography of the assembled complex; monomers mixed overnight at 4 °C; complex purified on a MonoQ column in a buffer containing CHAPS
# Conditions: both partners purified
# T1 sequence (P32851 183-288): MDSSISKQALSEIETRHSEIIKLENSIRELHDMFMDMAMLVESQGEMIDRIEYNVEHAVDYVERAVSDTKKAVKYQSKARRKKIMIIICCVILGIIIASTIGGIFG
binder,measurement,value
"NVDKVLERDQKLSELDDRADALQAGASQFETSAAKLKRKYWWKNLKMM (domain or fragment, Rattus norvegicus, UniProt P63045 49-96, looked up, synaptobrevin-2, Rattus norvegicus, residues 49-96; also called synaptobrevin fragment 49–96; source: E. coli BL21 (DE3), purified (Ni-NTA, ion exchange MonoS)) [synaptobrevin-2 fragment (49–96)]",binding result,binds
